Experiment: yeast display, Sf9 membrane polyspecificity reagent, FACS + sequencing; frameworks hold sequencing errors
Procedure, shortened: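 Polyreactivity labels are assigned by the sorting gate from which each nanobody was recovered. The gates were low and high (top ~1%), set on anti-HA fluorescence for expression and streptavidin fluorescence for reagent binding. Before sorting, galactose-induced (36–48 hours) yeast display cells were stained for 1 hour at 4 °C with 10% biotinylated, detergent-solubilized Sf9 membrane reagent.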

Sequence	polyreactivity (PSR sort gate)
QVQLQESGGGLVQAGGSMRLSCAASGSISELRPMGWYRQAPCKQRELDAGISTGGSTNYADSVKGRFTISRDNAKNTVYLQMNSLKPEDTAVYYCASASYGEGTYDYWGQGTQVTVRS	high polyreactivity
QVQLEESGGGLVQAGGSLRLSCAASGIIFILYTMGWYRQAPGKERELVATISSGGGSTFYADSVKGRFTISRDNAKNTVYLQMNSLKPEDTAVYYCAAEQLYYGERYYIWGYYYWGQGTQVTVSS	low polyreactivity
QVQLVESGGGLVQAGGSLRLSSAASGFIFFCYTMGWYRQARGKERELVAAISSTGARTYYADSVKGSFTISRDNAKNTVYLQMNSLKPEDTAFYYCAARLSYQGRGYRFWGQGTQVTVSS	high polyreactivity
QVQLEESGGGLVQAGGSLRLSCAASGSTFVYNALGWNRQAPGKEREFVAVINWSGGRTYADSVKGRFTISRDNAKTTVYLQMNSLNPDETEVYYCNAERRSYRFALQYRRYDYWGEGTQVTVSS	high polyreactivity
QVQLVESGGGLVQAGGSLRLSCAASGLIFPSYTMGWYRQAPGKERELVAAITFSGDSTNYADSVKGRFTISRDNAKNTVYLQMNSLKPEDTAVYYCAASQVSDTTRFGYWGQGTQVTVSS	low polyreactivity
QVQLVESGGGLVQAGGSHRLSCAASRSIFPYNAKGWYRQAPGKATELVATISNSGGSTYYADSVKGRFTISRDTAMNTVYLQMNSLKPEDTAVYYCADDRSVYLPAPDPALDYWGQGTQLTVSS	low polyreactivity
QVQRVESGGGLVQAGGSLRLSCAASASIFASYAMGWYRQAPGKERELVASISRGGGTTYADSVKGRFTISRDNAKNTVYLQMNSLKPDDTAVYYCAARKVIRYRPYGYWGQGTQVTVSS	high polyreactivity
QVQLVESGGGLVQAGGSLRLSCAASGRIFGWYAMGWYRQAPGKERELVAAIDGGDDSTYYADSVKGRFTISRDNAKNTVYLQMNSLKPEDTAVYYCAVVGYNWGQGTQVTVSS	low polyreactivity
QVQLVESGGGLVPAGGSLRLSCAASGFIFRYNTMGWYRQAPGKERELVAAITSGDSTYYADSVKGRFTISRDNAKNTVYLQMNSLKPEDTAVFYCAAAAYDSNGRYYYWGQGTQVSVSS	high polyreactivity
QVQLVESGGGLVQAGGSLRLSCAASGSIFHLYLGWYRQAPRKERELVAVIKSSGDSTYYADSVKGRFTISRDNAKNTVYLQMNSMKPEDTAVYYCNARRRGPRYRYCYWGQGTQVTVSS	high polyreactivity
QVQLEDSGGGLVQAGGSLRLSCAASGSTWVYAMGWYRQAPGTERELVASITVSGGSTYYADSVKGRFTISRDNAKNTVYLQMNSLKPEDTAVYYCAAYDSYRKFKYWRQGTQVTVSS	high polyreactivity
PVQIVESGGGLVQAGGRLRLSCAASGSILVPYAMGWSRQAPGKERELVADISIRTGSTYYADSVKGRFTISRDNAKNTVYLQMYSLKPEETAVYYCNAAHRKPYTGLYYWGQGTQVTVSS	high polyreactivity
QVQLVESGGGLVQAGGRLRLSCAASGYTFKFNAMGWYRQAPGKETELVAGITRGGGTYADSVKGRFTISRDNAKNTVYLQMNSLKPDDTAVSYCASAWGAPSRFFSAFDYWGQGTQVTVSS	low polyreactivity
QVQLVESGGGLVQAGGSLRLSCAASGFIFVRYAMGWYRQAPGKERELVAAISSGGSTKYADSVKGRFTISRDNAKNTVYLQMNSLKPEDTAVYYCAADATPGRGVDYWGQGTQVTVSS	high polyreactivity
QVQLVESGGGLVQAGGSLRLSSAASGFIFPAYAMGWYRQAPGKDRELVAAISKSGGRTYYADSVKGRFTISRDNAKNTVYLQMNSLKPEDTAVYYCNKDRYPREQYTWKYAWGYDYWGQGTQVTVSS	high polyreactivity
QVQLVESGGGVVQAGGSLRLICAASGSTFHSYVMGWYRQAPWKERELVAAITSRGGSTNYADSVKGRFTISRDNAKNTVYLQLNSQKPEDTAVYCCAADGYLGWSYCRYDYWGQGTQVTVSS	low polyreactivity
QVQLVESGGGVVQAGGSLRLSCAASGSTFSAYTMGWYRQAPGKERELVAAISRSGVSTYYADSVKGRFTISRDNAKNTVYLQMNSLKPEDTAVYYCAAPYFVSYQGYDYCGQGTQVTVSS	high polyreactivity
QVQLVESGGGLVQAGGSLRLSCAASGSTFYTNAMGWYRQAPWKERELVAAISNAVSTYYADSVKGRFTISRDNAKNTVYLQMKSLKPEDTAVYYCAADPIGLSSLWFRYSVSDVDYWGQGTQVTVSS	low polyreactivity
QVQLEESGGGLVQAGGSLRLSCAASGFTFYDYAMVWYRQAPGKERELVAAIRRSGTRTYYADSVKGRFTISRDNAKNTVYLQINSLKPEDTAVYYCAARYSYTHQRDYWGQGTLVTVSS	high polyreactivity
QVQLVESGGGLVQAGGSLRLSCAASGIIFGTNAMGWYRQAPGKERELVAAIRVTGGSTYYADSVKGRFTISRDNAKNTVYLQMNSLKPEDTAVYYCARDSWFVVDMDYWGQGTQVTVSS	low polyreactivity
QLQLEESRGGLVQAGGSLRLSCAASGGTCFSYAMGCYRQAPGKERELVAGIRNGGSTKYADSVKGRFTISRDNAKNTVYLQMNSLNPEDTAVYYCAARYYRPYTSSWAHNYRLDYCGQGTQVTVSS	high polyreactivity
QVQLVESGGGLVQAGGSLRLSCAASGSTFPVYAMGWYRQAPGKERELFAAISRAGSTNYADSVKGRFTISRDNAKNTVYLQMNSLKPEDTAVYYCAARGYLWAGEWYVRRDYWGQGTQVTVSS	high polyreactivity

Sequence	polyreactivity (PSR sort gate)
QVQLVESGGGLVQAGGSLRLSCAASGFIFSNNAMGWYRQAPGKERELVAAITASGGRTYYADSVKGRFTISRDNAKNTVYLQMNSLKPEDTSVYYCAAALYDIMGYWGQGTQLTVSS	high polyreactivity
QVQLVESGGGLVQAGGRLRLSCAASGSIFGKYAMGWYRQAPGKERELVAAISKGGGRTSYADSVKGRFTISRDNAKNTVYLQMNSLKPEDTAVYYCNRYTQYRDRSDNHWGQGTQVTVSS	high polyreactivity
QVQLVESGGGLVQAGGSLRLSCAASGNILGSYAMGWYRQAPWKQRELVAAITWSGGTTYYADSVKGRFTISCDNAKNTVYLQMNSLKPEDTAVYYCAVEIVLTRFDYWGQGTQVTVSS	low polyreactivity
QVQLVESGGGLVQEGCSLRLTCAASGSIFYYYAMGWYRQAPRKERELVATITWNGAGTFYADSVKGRFTISRDNAKNTVYLQMNSLKPEDTAVYYCAASWYGESGYDYWGQGTQVTVSS	low polyreactivity
QYQLVESVGGLDQAGGTLRLSCAASARIFSYYAMGWYRQAPGKERELVATISYSGGSTYYADSVKGRFTISRDKAKNTVYLQMNSLKPEDSAVYYCAATRYPYFSFVRFPSRRFNYWGQGTQVTVSS	high polyreactivity
QVQLVESGGGLVQAGGSLRLSCAPSGSILWLNAMGWYRQAPGKERELVADITRGGSTYYADSVKGRFTISRDNAKNTVYLQMNSLKPEDTAVYYCAAKRGKTYQRFDYWGQGTQVTVSS	high polyreactivity
QVQLVESGGGLVQAGGSLRLSCAASGRTFPVYAMGWYRQAPGKEREFVAAISRRGGSTYYADSVKGRFTISRDNAKNTVYLQMNSLKPQDTAVYYCAKVYYLYGAQHNPGRYDYWGQGTQLTVSS	high polyreactivity
QVQLVESGGGLVQAGGSLRLSCAASGFTFYWYAMGWYRQAPGKERELVAAISRGGSTNYADSVKGRFTISRDNAKNTVYLQMNSLKPEDTAVYYCARDNPYRWFYRYVGEGDYWGQGTQVTVSS	low polyreactivity
QVQLVESGGGLVQAGGSLRLSCAASGSTFVIYTMGWCRQAPGKERELVAAISWSGGITRYADSVKGRFTISRDNAKNTVYLQMNSLKPEDTAVYYCNASQWPSLFDYWGQGTQVTVSS	low polyreactivity
QVQLVESGGGLVQAGGSLRLSCAASGLIFLDYAMGWYRQAPGKERELVAAISRSGGRTYYADSVKGRFTISRDNAKNTVYLQMNSLKPEDTAVYYCAADGSRKSEIYDYWGQGTQVTVSS	high polyreactivity
QVQLVESGGGLVQAGGSLRISSAASGFTFTPNAKGWYRQAPGKERELVAVITWNGGTTYYADSVKGRFTISRDNAQNTVYLQMNSLKPEDTAVYYCNADGLILYDYWGHGTQVTVSS	low polyreactivity
QDQLVESGGGLVQAGGSLRLSCAASGFTFARNGMGWYRQAPVKEREFVAAITRSGGRTYYADSVKGRFTISRDNAKNTVYLQMNSLKPQDTAVYYCAAATSYGKSEYDYWGQGTQVTVSS	high polyreactivity
QVQLVESGGRLVQAGGILRLSCAASGIIFKDYAMGWYRQATGKERELVAAISWSGSSTYYADSVKGRFTISRDNAKNTVYLQMNSLKPEDTAVYYCNAFPGDYRYDYWGQGTQVTVSS	high polyreactivity
QVQLVESGGGLVQAGGSLRLSCAASGSTLFTYAMGWYRQAPGKERELVAAITSSGSTYYADSVKGRFTISRDNAKNTVYLQMNSLKPEDTAVYYCAVPGYRYTKYYYWGQGTQVTVSS	low polyreactivity
QVQLVESGGGLVQAGGSLRLSCAASGIIFVYYAMGWYRQAPGKERELVAAISRSGGRTYYADSVKGRFTISRDNAKNTVYLQMNSLKPEDTAVYYCAAEVYKRYRYDYWGQGTQVTVSS	high polyreactivity
QVQLVESGGGLVQAGGSLRLSCAASGGTFDTYAMGWYRQAPGKERELVAGIDWSGGSTYYADSVKGRFTISRDNAKNTVYLQMNSLKPEDTAVYYCAADYYYPSQMDYWGQGTQVTVSS	low polyreactivity
QVQLVESGGGLVQAGGSLRLSCAASGRTIKYYDMGWYRQAPGKERELVADISGRGGSTYYADSVKGRFTISRDNAKNTVYLQMNSLIPEDTAVYYCNAEWFTSSYAHYGMEHWGQGTQVTVSS	low polyreactivity
QVQLVESGGGLVQAGGSLRLSCAASGSIFGYYAMGWYRQAPGKERELVAAISVRGGSTYYADSVKGRFTISRDNAKNTVYLQMNSLKPEDTAVYYCAARISYSLSYWGQGTQVTVSS	high polyreactivity
QVQLVESGGGLVQAGGSLRLSCAASGFTFDFYAMGWYRQAPGKERELVAAINWSGSSTYYADSVKGRFTISRDNAKNTVYLQMNSLKPEDTAVYYCAAQVYYTLFPDVYTMYYWGQGTQVTVSS	high polyreactivity
QVQLVESGGGLVQAGGSLRLSCAASGFIFRYYAMGWYRQAPGKERELVAAISWSGGSTNYADSVKGRFTISRDNAKNTVYLQMNSLKPEDTAVYYCATRYRRWSTVVQDDYWGQGTQVTVSS	low polyreactivity
QVQLVESGGGLVQAGGSLRLSCAASGSTFLGYTMGWSRQAPGKERELVATITRRGGRTSYADSVKGRFTISRDNAKNTVYLQMNSLKPEDTAVYYCATDSKRSSVPWNTYDYWGQGTQVTVSS	high polyreactivity

Source: the nanobody polyreactivity screen of Harvey et al. (2022)
